From article PMC12448032

Target: PD-L1 (UniProt Q9EP73)
Chain of UniProt Q9EP73 (Q9EP73 19-290): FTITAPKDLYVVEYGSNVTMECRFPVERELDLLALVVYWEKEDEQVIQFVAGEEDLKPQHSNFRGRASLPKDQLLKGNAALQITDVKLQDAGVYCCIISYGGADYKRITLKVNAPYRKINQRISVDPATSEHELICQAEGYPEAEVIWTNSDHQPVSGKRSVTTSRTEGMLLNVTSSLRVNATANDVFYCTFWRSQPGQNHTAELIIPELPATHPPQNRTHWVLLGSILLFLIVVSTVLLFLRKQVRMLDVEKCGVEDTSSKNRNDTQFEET

Substance: programmed cell death-1 (PD1), mouse, overexpressed in 293 T cells (from UniProt Q02242 25-288) (receptor)
- uptake by K7M2 cells of BI@PCM NPs (PD1-high membrane) compared to B@CM NPs (PD1-low membrane), flow cytometry, 4 h: 2.1 fold
